Residue numbers refer to the chain shown, from its start. Blank lines part the entries; values can stand above or below the binder they belong to.
Columns and labels:
[1] = biological target: T1, mature human GDF-15 (human, UniProt Q99988 197-308); assay: HTRF epitope competition; competitor DyLight 650 labelled Antibody A; Europium labelled human GDF-15
T1 construct: Homodimer; also called hGDF-15; recombinant hu-GDF15
T1 sequence: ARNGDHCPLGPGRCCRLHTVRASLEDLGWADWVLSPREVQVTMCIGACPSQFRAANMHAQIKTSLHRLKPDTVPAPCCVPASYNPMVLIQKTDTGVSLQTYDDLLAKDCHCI
Description: Antibodies from the immunizations with human GDF-15, in the form of crude supernatants from the immunization or in the form of purified IgGs, were chosen on the basis that they bind and compete with an epitope recognized by a control anti-GDF-15 antibody “Antibody A”. A biochemical epitope competition format was applied using an HTRF epitope competition assay that measured the binding of DyLight 650 labelled Antibody A to Europium labelled human GDF-15 (Prospec). In the absence of Antibody A binding, there is no detectable FRET fluorescence. When Antibody A binds to GDF-15, the resulting physical proximity between the secondary reagent donor/acceptor pair results in FRET. Competition with an antibody that recognizes the same or similar epitope will result in a dose dependent reduction of the FRET signal. FRET was measured ratiometrically [665 nm (acceptor)/620 nm (donor)] on an Envision plate reader, and IC₅₀ values were determined by curve fitting the data to a four parameter logistic equation using PRISM 6® software (Graphpad).

[2] = biological target: T2, human BMP7 (R&D Systems 354-BP/CF) (human, UniProt P18075 293-431); assay: antigen presentation ELISA: human BMP7 adsorbed on a Nunc Maxisorp plate, titration of IgG, anti-human IgG-HRP, TMB, absorbance at 450 nm
T2 construct: Bought protein, adsorbed on the ELISA plate
T2 sequence (looked up): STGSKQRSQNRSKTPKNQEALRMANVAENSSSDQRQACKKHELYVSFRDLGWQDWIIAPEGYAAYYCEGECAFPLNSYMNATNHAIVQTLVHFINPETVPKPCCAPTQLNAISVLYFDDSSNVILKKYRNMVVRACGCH
Protocol: (§1) Purified humanized IgGs were screened for binding to human GDF-15 over two further members of the same family, TGFβ1 (R&D Systems 240-B) and BMP7 (R&D Systems 354-BP/CF), using a standard antigen presentation ELISA. Human GDF-15, human TGFβ1 or human BMP7 were adsorbed onto a Nunc Maxisorp™ plate. After removal of excess unbound antigen, a titration of test IgG was added to the plate. After a 1-hour incubation, the unbound IgG was removed. The extent of IgG binding was determined by addition of an anti-human IgG antibody conjugated to the horseradish peroxidase (HRP) enzyme and measuring the optical absorbance at 450 nm of the product of its reaction with the substrate TMB.

[3] = biological target: T3, human TGFβ1 (R&D Systems 240-B) (human, UniProt P01137 279-390); assay: antigen presentation ELISA: human TGFβ1 adsorbed on a Nunc Maxisorp plate, titration of IgG, anti-human IgG-HRP, TMB, absorbance at 450 nm
T3 construct: Bought protein, adsorbed on the ELISA plate
Protocol: as §1

[4] = biological target: T4, mouse GDF-15 (mouse, UniProt Q9Z0J7 189-303); assay: HTRF binding assay, biotinylated mouse GDF-15
T4 construct: also called mGDF-15
T4 sequence: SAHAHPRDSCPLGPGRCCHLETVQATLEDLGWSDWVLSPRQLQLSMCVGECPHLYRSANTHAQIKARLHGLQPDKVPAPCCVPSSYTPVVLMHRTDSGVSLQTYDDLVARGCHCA
Description: (§2) Supernatants generated from the immunizations with human GDF-15 and purified IgGs were screened to identify IgGs with specific binding to human, cynomolgus, or mouse GDF-15. The HTRF (Homogeneous Time Resolved Fluorescence) assay is based on detection of a measurable FRET signal upon binding of a titration of test antibody to biotinylated human H202D GDF-15 variant, cynomolgus GDF-15 and mouse GDF-15. Europium cryptate (EuK) labelled Streptavidin and anti-human IgG XL665 (Cis Bio) were used as secondary detection reagents serving as energy donor and acceptor respectively. In the absence of test antibody binding, there is no detectable FRET fluorescence. When test antibody binds to GDF-15, the resulting physical proximity between the secondary reagent donor/acceptor pair results in FRET. FRET was measured ratiometrically [665 nm (acceptor)/620 nm (donor)] on an Envision plate reader, and data plotted using PRISM 6® software (Graphpad).

[5] = biological target: T5, biotinylated human H202D GDF-15 variant (human, UniProt Q99988 197-308, biotinylated, sites not stated); assay: HTRF binding assay, biotinylated antigen, titration of antibody
T5 construct: also called Human GDF-15 H202D
T5 chain: T1 sequence with H6D
Description: as §2

[6] = biological target: T6, biotinylated cynomolgus GDF-15 (cynomolgus, UniProt G7PWZ3 197-308, biotinylated, sites not stated); assay: as above
T6 construct: also called Cyno GDF-15
T6 sequence: T1 sequence with H6R, R21H, A54E, T63M, S64N, I112V
Description: as §2

T3 sequence (P01137 279-390 limits assumed): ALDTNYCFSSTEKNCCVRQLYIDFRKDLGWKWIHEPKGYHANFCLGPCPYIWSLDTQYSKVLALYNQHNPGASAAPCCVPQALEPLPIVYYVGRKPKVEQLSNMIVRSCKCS

IC50 [1]: 11.3 nM
binding result [2]: no binding (tested: 5 µg/mL)
binding result [3]: no binding (tested: 5 µg/mL)
B1: AB1170247 (antibody, IgG1, V domains shown)
VH: QVQLVQSGSELKKPGASVKVSCKASGYTFTSYDINWVRQAPGQGLEWIGWIYPRDGISKYNEKFKGRATLTVDTSASTAYMELSSLRSEDTAVYYCAGTYDPAYFDYWGQGTTVTVSS
VL: EIVLTQSPATLSVSPGERATLSCRASQSISYYLHWYQQKPGQAPRLLIKYASQSISGVPDRFSGSGSGTDFTLKISRVEAEDFGVYYCQQSNSWPYTFGGGTKVEIK
notes: Humanized IgG1 TM; not shown: human immunoglobulin kappa light chain constant domain

binding result [4]: no binding
binding result [5]: binds
binding result [6]: binds
IC50 [1]: 6.1 nM
B2: AB1170002 (antibody, V domains shown)
VH: QVTLKESGPGILQPSQTLSLTCSFSGFSLSTYGMGVGWIRQPSGKGLEWLANIWWNDDKYYNSALKSRLTISKDTSNNQVFLKISSVDTADTVTYYCAQVGYDWFAYWGQGTLVTVSS
VL: EIVLTQSPALMAASPGEKVTITCSVSSSISSSNLHWYQQKSETSPKPWIYGTSNLASGVPVRFSGSGSGTSYSLTISSMEAEDAATYYCQQCSSYPLTFGAGTKLELK

IC50 [1]: 0.288 nM
binding result [2]: no binding (tested: 5 µg/mL)
binding result [3]: no binding (tested: 5 µg/mL)
B3: AB1170242 (antibody, IgG1, V domains shown)
VH: QVQLQESGPGLLKPSQTLSLTCTVSGFSLSTYGMGVGWIRQPAGKGLEWLANIWWNDDKYYNSALKSRLTISKDTSKNQVSLKLSSVTAADTAVYYCAQEVYGWFAYWGQGTLVTVSS
VL: DIQMTQSPSTLSASVGDRVTITCKASQNVGTNVAWYQQKPGQPPKALIYSASYRYSGVPDRFSGSGSGTDFTLTISSLQAEDVAVYYCQQYNSYPLTFGQGTKLEIK
notes: as for B1

IC50 [1]: 0.406 nM
binding result [2]: no binding (tested: 5 µg/mL)
binding result [3]: no binding (tested: 5 µg/mL)
B4: AB1170249 (antibody, IgG1, V domains shown)
VH: B3 VH with A43L, E100M, V101A, G103S
VL: B3 VL with T10F, V29M, G30D, L96F
notes: as for B1

IC50 [1]: 4.99 nM
binding result [2]: no binding (tested: 5 µg/mL)
binding result [3]: no binding (tested: 5 µg/mL)
B5: AB1170246 (antibody, IgG1, V domains shown)
VH: QVQLQESGPGLLKPSQTLSLTCTVSGFSLITSGLGVSWIRQPAGKGLEWLAHIYWDDDKRYNPSLKSRLTISKDTSKNQVSLKLSSVTAADTAVYYCARGGYDGYYDYWGQGTTVTVSS
VL: DVVMTQSPLSLPVTLGQPASISCRSSQSIVHSNGNTNLEWYLQKPGQSPQLLIYKVSNRLSGVPDRFSGSGSGTDFTLKISRVEAEDVGVYYCFQGSHVRTFGQGTKLEIK
notes: as for B1

IC50 [1]: 0.212 nM
binding result [2]: no binding (tested: 5 µg/mL)
binding result [3]: no binding (tested: 5 µg/mL)
B6: AB1170241 (antibody, IgG1, V domains shown)
VH: QVQLVQSGSELKKPGASVKVSCKASGYTFTDYNMDWIRQSPGKGLEWIGDINPNQGGTFYNQKFKDRATLTVDKSTSTAYMELRSLRSDDTAVYYCAREEKLYFGLMDYWGQGTTVTVSS
VL: DIQMTQSPSSLSASVGDRVTITCRASENIYSYLAWYQQKPGKAPKLLVYNAKTLAEGVPSRFSGSGSGIDFTLTISSLQPEDFATYYCQHQYGSPPTFGQGTKLEIK
notes: Humanized IgG1 TM; Made from AB1170243 by changing NNG to NQG in heavy chain CDR2; not shown: human immunoglobulin kappa light chain constant domain

IC50 [1]: 1.58 nM
binding result [2]: no binding (tested: 5 µg/mL)
binding result [3]: no binding (tested: 5 µg/mL)
B7: AB1170248 (antibody, IgG1, V domains shown)
VH: QVQLVQSGSELKKPGASVKVSCKASGYTFTDYNMDWVRQAPGKGLEWIGDINPYNGITIYNQKFKGRATLTVDKSTSTAYMELRSLRSDDTAVYYCAREEKLGTSFDYWGQGTTVTVSS
VL: B6 VL with Y32N, N50A, K52T, T53N, E56D, I69T, Q91F, S94T, P96W
notes: as for B1

IC50 [1]: 0.155 nM
binding result [2]: no binding (tested: 5 µg/mL)
binding result [3]: no binding (tested: 5 µg/mL)
B8: AB1170243 (antibody, IgG1, V domains shown)
VH: B6 VH with Q55N
VL: B6 VL
notes: Humanized IgG1 TM; also called human anti-human GDF-15 IgG; not shown: human immunoglobulin kappa light chain constant domain

IC50 [1]: 1.17 nM
binding result [2]: no binding (tested: 5 µg/mL)
binding result [3]: no binding (tested: 5 µg/mL)
B9: AB1170244 (antibody, IgG1, V domains shown)
VH: EVQLVESGGGLVKPGGSLRLSCAASGFTFSSYAMSWVRQAPGKGLEWVAYISSGGDNIYYADTVKGRFTISRDNSKNTLYLQMNSLKTEDTAVYYCTRALVENAYFDYWGQGTTVTVSS
VL: DSVLTQSPDSLAVSLGERATINCRASKSVSTSTYSYMHWYQQKPGQPPKLLIKYASYLESGVPDRFSGSGSGTDFTLKISRVEAEDVGVYYCQHSREFPWTFGGGTKVEIK
notes: as for B1

IC50 [1]: 2.23 nM
binding result [2]: no binding (tested: 5 µg/mL)
binding result [3]: no binding (tested: 5 µg/mL)
B10: AB1170245 (antibody, IgG1, V domains shown)
VH: B9 VH with N57Y, E102D
VL: DIVLTQSPDSLAVSLGERATINCRASKSVSTSSYSYMHWYQQKPGQPPKLLIKYASYLEFGVPSRFSGSGSGTDFTLTISSLQPEDVATYYCQHSREFPWTFGGGTKVEIK
notes: as for B1
